Source: patent US20130089499A1 (NATIONAL RESEARCH COUNCIL OF CANADA, published 2013)

Assays:
human myostatin (GDF8) = human myostatin (GDF8) (human, UniProt O14793 267-375); assay: cell-based or functional assay
TGF-β1 [1] = target: T1, TGF-β1 (UniProt P01137 279-390); assay: cell-based or functional assay
TGF-β1 or -β3 = assay: SPR (Biacore) solution competition: binder pre-incubated with 5 nM TGF-β (β1 or β3, isoform not named on the sheet), injected over immobilised 1D11 anti-TGF-β antibody; plateau response measures free TGF-β
TGF-β1 [2] = target: T1, TGF-β1; assay: SPR (Biacore) solution competition: trap coinjected with 5 nM TGF-β1 over immobilised 1D11 anti-TGF-β antibody; plateau response measures free TGF-β1
TGF-β1 [3] = target: T1, TGF-β1; assay: SPR indirect binding assay: binder titrated against 5 nM TGF-β1, free TGF-β1 measured on the 1D11 surface
Method: (§1) SPR data was generated using a Biacore 3000 instrument (G.E. Healthcare Inc.) using HBS as running buffer. […] A twenty-fold stock concentration of TGF-β (100 nM in 10 mM acetic acid) was used. […] Blank injection samples were made from 10 μl 10 mM acetic acid mixed with 190 uL HBS. […] All sensogram analysis was carried out using Biacore BiaEvaluation software v4.1 (G.E. Healthcare Inc.).

TGF-β2 = target: T2, TGF-β2 (UniProt P61812 303-414); assay: SPR (Biacore), 100 nM injected over immobilised TGF-β2
T2 sequence (looked up): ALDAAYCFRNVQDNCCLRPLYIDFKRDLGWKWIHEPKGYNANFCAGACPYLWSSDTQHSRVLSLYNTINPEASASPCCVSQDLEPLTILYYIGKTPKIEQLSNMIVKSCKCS

TGF-β1 [4] = target: T1, TGF-β1; assay: SPR (Biacore) solution competition: binder pre-incubated with 5 nM TGF-β1, injected over immobilised 1D11 anti-TGF-β antibody; plateau response measures free TGF-β1
Method: as §1

## ActRIIB monomer (receptor)
Human myostatin (GDF8)
  IC50, neutralization of myostatin in A204 cells with (CAGA)12-luciferase reporter: 0.38 nM

B1: Prototype (TβRII)^2 (designed binder)
chain: TIPPEQKLISEEDLLHVQKSVNNDMIVTDNNGAVKFPQLCKFCDVRFSTCDNQKSCMSNCSITSICEKPQEVCVAVWRKNDENITLETVCHDPKLPYHDFILEDAASPKCIMKEKKKPGETFFMCSCSSDECNDNIIFSEEYNTSNPDGGRHVQKSVNNDMIVTDNNGAVKFPQLCKFCDVRFSTCDNQKSCMSNCSITSICEKPQEVCVAVWRKNDENITLETVCHDPKLPYHDFILEDAASPKCIMKEKKKPGETFFMCSCSSDECNDNIIFSEEYNTSNPDHHHHHH
TGF-β1 [1]
  IC50, inhibition of TGF-β signaling in Mv1Lu luciferase reporter cells: 0.58 nM
TGF-β1 or -β3
  IC50: 7.6 nM

B2: N-His (TβRIIb)^2 (designed binder)
chain: APMAEGGGQNHHHHHHHHGGSFNPRIPPHVQKSVNNDMIVTDNNGAVKFPQLCKFCDVRFSTCDNQKSCMSNCSITSICEKPQEVCVAVWRKNDENITLETVCHDPKLPYHDFILEDAASPKCIMKEKKKPGETFFMCSCSSDECNDNIIFSEEYNTSNPDIPPHVQKSDVEMEAQKDEIICPSCNRTAHPLRHINNDMIVTDNNGAVKFPQLCKFCDVRFSTCDNQKSCMSNCSITSICEKPQEVCVAVWRKNDENITLETVCHDPKLPYHDFILEDAASPKCIMKEKKKPGETFFMCSCSSDECNDNIIFSEEYNTSNPD
notes: TβRII ectodomain followed by a TβRIIb ectodomain, giving a 60-residue linker, with an N-terminal His tag; also called (TβRII)^2 trap having a 60 amino acid linker
TGF-β1 [1]
  IC50, neutralization of TGFβ1 (Mv1Lu luciferase reporter cells): 0.04 nM
  fold more potent than N-His (TβRII)^2 in neutralization of TGFβ1: 4 fold
TGF-β1 [2]
  IC50: 0.6 nM

B3: N-His (TβRII)^2 (designed binder)
chain: APMAEGGGQNHHHHHHHHGGSFNPRIPPHVQKSVNNDMIVTDNNGAVKFPQLCKFCDVRFSTCDNQKSCMSNCSITSICEKPQEVCVAVWRKNDENITLETVCHDPKLPYHDFILEDAASPKCIMKEKKKPGETFFMCSCSSDECNDNIIFSEEYNTSNPDIPPHVQKSVNNDMIVTDNNGAVKFPQLCKFCDVRFSTCDNQKSCMSNCSITSICEKPQEVCVAVWRKNDENITLETVCHDPKLPYHDFILEDAASPKCIMKEKKKPGETFFMCSCSSDECNDNIIFSEEYNTSNPD
notes: Two human TβRII ectodomains in tandem with the native 35-residue linker (IPP restored), an N-terminal 8xHis tag and a thrombin site; also called modified N-His (TβRII)^2; bivalent N-His (TβRII)^2
TGF-β1 [1]
  IC50, neutralization assay in Mv1Lu luciferase reporter cells: < 1 nM
  IC50, neutralization of TGFβ1 (Mv1Lu luciferase reporter cells): 0.16 nM
TGF-β1 [3]
  IC50: 1.1 nM
TGF-β1 [2]
  IC50: 1.4 nM

B4: (ActRIIB)^2 (designed binder)
chain: SGSEQKLISEEDLLGRGEAETRECIYYNANWELERTNQSGLERCEGEQDKRLHCYASWRNSSGTIELVKKGCWLDDFNCYDRQECVATEENPQVYFCCCEGNFCNERFTHLPEAGGPEVTYEPPPTAPTSGRGEAETRECIYYNANWELERTNQSGLERCEGEQDKRLHCYASWRNSSGTIELVKKGCWLDDFNCYDRQECVATEENPQVYFCCCEGNFCNERFTHLPEAGGPEVTYEPPPTAPTHHHHHH
Human myostatin (GDF8)
  IC50, neutralization of myostatin in A204 cells with (CAGA)12-luciferase reporter: 0.1 nM
  fold more potent than dimeric ActRIIb-Fc in neutralization of myostatin: 10 fold

B5: N-His TβRII monomer (receptor)
chain: APMAEGGGQNHHHHHHHHGGSFNPRIPPHVQKSVNNDMIVTDNNGAVKFPQLCKFCDVRFSTCDNQKSCMSNCSITSICEKPQEVCVAVWRKNDENITLETVCHDPKLPYHDFILEDAASPKCIMKEKKKPGETFFMCSCSSDECNDNIIFSEEYNTSNPD
notes: Single TβRII ectodomain with an N-terminal His tag, produced in 293 cells; also called monomeric N-His TβRII; N-His TβRII (293 cells)
TGF-β2
  binding result: no binding (tested: 100 nM)
TGF-β1 [3]
  fold higher IC50 than N-His (TβRII)^2: ~8 fold
TGF-β1 [4]
  IC50: 8.1 nM
